B1: STAT5B (unphosphorylated, wild-type), fluorophore fusion [not stated] / STAT5A (unphosphorylated, wild-type), fluorophore fusion [not stated] (parent complex)
chain 1: MAVWIQAQQLQGEALHQMQALYGQHFPIEVRHYLSQWIESQAWDSVDLDNPQENIKATQLLEGLVQELQKKAEHQVGEDGFLLKIKLGHYATQLQNTYDRCPMELVRCIRHILYNEQRLVREANNGSSPAGSLADAMSQKHLQINQTFEELRLVTQDTENELKKLQQTQEYFIIQYQESLRIQAQFGPLAQLSPQERLSRETALQQKQVSLEAWLQREAQTLQQYRVELAEKHQKTLQLLRKQQTIILDDELIQWKRRQQLAGNGGPPEGSLDVLQSWCEKLAEIIWQNRQQIRRAEHLCQQLPIPGPVEEMLAEVNATITDIISALVTSTFIIEKQPPQVLKTQTKFAATVRLLVGGKLNVHMNPPQVKATIISEQQAKSLLKNENTRNDYSGEILNNCCVMEYHQATGTLSAHFRNMSLKRIKRSDRRGAESVTEEKFTILFESQFSVGGNELVFQVKTLSLPVVVIVHGSQDNNATATVLWDNAFAEPGRVPFAVPDKVLWPQLCEALNMKFKAEVQSNRGLTKENLVFLAQKLFNNSSSHLEDYSGLSVSWSQFNRENLPGRNYTFWQWFDGVMEVLKKHLKPHWNDGAILGFVNKQQAHDLLINKPDGTFLLRFSDSEIGGITIAWKFDSQERMFWNLMPFTTRDFSIRSLADRLGDLNYLIYVFPDRPKDEVYSKYYTPVPCESATAKAVDGYVKPQIKQVVPEFVNASADAGGGSATYMDQAPSPAVCPQAHYNMYPQNPDSVLDTDGDFDLEDTMDVARRVEELLGRPMDSQWIPHAQS
chain 2: MAGWIQAQQLQGDALRQMQVLYGQHFPIEVRHYLAQWIESQPWDAIDLDNPQDRAQATQLLEGLVQELQKKAEHQVGEDGFLLKIKLGHYATQLQKTYDRCPLELVRCIRHILYNEQRLVREANNCSSPAGILVDAMSQKHLQINQTFEELRLVTQDTENELKKLQQTQEYFIIQYQESLRIQAQFAQLAQLSPQERLSRETALQQKQVSLEAWLQREAQTLQQYRVELAEKHQKTLQLLRKQQTIILDDELIQWKRRQQLAGNGGPPEGSLDVLQSWCEKLAEIIWQNRQQIRRAEHLCQQLPIPGPVEEMLAEVNATITDIISALVTSTFIIEKQPPQVLKTQTKFAATVRLLVGGKLNVHMNPPQVKATIISEQQAKSLLKNENTRNECSGEILNNCCVMEYHQATGTLSAHFRNMSLKRIKRADRRGAESVTEEKFTVLFESQFSVGSNELVFQVKTLSLPVVVIVHGSQDHNATATVLWDNAFAEPGRVPFAVPDKVLWPQLCEALNMKFKAEVQSNRGLTKENLVFLAQKLFNNSSSHLEDYSGLSVSWSQFNRENLPGWNYTFWQWFDGVMEVLKKHHKPHWNDGAILGFVNKQQAHDLLINKPDGTFLLRFSDSEIGGITIAWKFDSPERNLWNLKPFTTRDFSIRSLADRLGDLSYLIYVFPDRPKDEVFSKYYTPVLAKAVDGYVKPQIKQVVPEFVNASADAGGSSATYMDQAPSPAVCPQAPYNMYPQNPDHVLDQDGEFDLDETMDVARHVEELLRRPMDSLDSRLSPPAGLFTSARGSLS

In this experiment the parent is B1. As to the kind of experiment: co-localization assay (quantitative fluorescence microscopy in HeLa cells); bait S5A-NES, test S5B-L82A; 27 cells (parent 17 cells); parent: 0.97.
Take chain 1 L82A: the screen value stood at 0.65.

The values are drawn from publication PMC10200994 (2023).
